Measurements taken from article PMC12416549 (2024).

Molecular target: T1, TNFR1 (Homo sapiens, UniProt P19438)
T1 chain: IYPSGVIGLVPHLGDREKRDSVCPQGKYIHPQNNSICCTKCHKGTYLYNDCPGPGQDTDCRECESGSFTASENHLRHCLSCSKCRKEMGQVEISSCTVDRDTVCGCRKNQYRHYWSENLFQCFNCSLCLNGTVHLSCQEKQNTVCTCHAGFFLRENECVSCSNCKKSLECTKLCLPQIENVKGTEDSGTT
Assay: yeast display SC50

B1: A90Q (designed binder)
chain: SMEEEVEKAAKEYEKKKKEAIEKHLEKLKAKDKEAAERFLKELEEAAKEYAKDEAKTMSEEEAKRRAKKYKEKVLLSELSEEEQKEIKEQEEKLVRTILKYVEEAAK
For B1, the “apparent Kd (screen)” value was 0.49 nM.

B2: E72L (designed binder)
chain: SMEEEVEKAAKEYEKKKKEAIEKHLEKLKAKDKEAAERFLKELEEAAKEYAKDEAKTMSEEEAKRRAKKYKLKVLLSELSEEEQKEIKEAEEKLVRTILKYVEEAAK
With B2 the “apparent Kd (screen)” value was 0.446 nM.

B3: S1Q (designed binder)
chain: QMEEEVEKAAKEYEKKKKEAIEKHLEKLKAKDKEAAERFLKELEEAAKEYAKDEAKTMSEEEAKRRAKKYKEKVLLSELSEEEQKEIKEAEEKLVRTILKYVEEAAK
With B3 the “apparent Kd (screen)” value was 0.539 nM.

B4: S80A (designed binder)
chain: SMEEEVEKAAKEYEKKKKEAIEKHLEKLKAKDKEAAERFLKELEEAAKEYAKDEAKTMSEEEAKRRAKKYKEKVLLSELAEEEQKEIKEAEEKLVRTILKYVEEAAK
B4 was tested, and the “apparent Kd (screen)” value was 1.16 nM.

B5: K73Y (designed binder)
chain: SMEEEVEKAAKEYEKKKKEAIEKHLEKLKAKDKEAAERFLKELEEAAKEYAKDEAKTMSEEEAKRRAKKYKEYVLLSELSEEEQKEIKEAEEKLVRTILKYVEEAAK
For B5, the “apparent Kd (screen)” value was 10.4 nM.

B6: E26F (designed binder)
chain: SMEEEVEKAAKEYEKKKKEAIEKHLFKLKAKDKEAAERFLKELEEAAKEYAKDEAKTMSEEEAKRRAKKYKEKVLLSELSEEEQKEIKEAEEKLVRTILKYVEEAAK
In the case of B6, the “apparent Kd (screen)” value is reported as 0.956 nM.

B7: E104T (designed binder)
chain: SMEEEVEKAAKEYEKKKKEAIEKHLEKLKAKDKEAAERFLKELEEAAKEYAKDEAKTMSEEEAKRRAKKYKEKVLLSELSEEEQKEIKEAEEKLVRTILKYVETAAK
With B7 the “apparent Kd (screen)” value was 0.49 nM.

B8: K85G (designed binder)
chain: SMEEEVEKAAKEYEKKKKEAIEKHLEKLKAKDKEAAERFLKELEEAAKEYAKDEAKTMSEEEAKRRAKKYKEKVLLSELSEEEQGEIKEAEEKLVRTILKYVEEAAK
For B8, the “apparent Kd (screen)” value was 0.49 nM.

B9: L99V (designed binder)
chain: SMEEEVEKAAKEYEKKKKEAIEKHLEKLKAKDKEAAERFLKELEEAAKEYAKDEAKTMSEEEAKRRAKKYKEKVLLSELSEEEQKEIKEAEEKLVRTIVKYVEEAAK
For B9, the “apparent Kd (screen)” value was 2.25 nM.

B10: K56V (designed binder)
chain: SMEEEVEKAAKEYEKKKKEAIEKHLEKLKAKDKEAAERFLKELEEAAKEYAKDEAVTMSEEEAKRRAKKYKEKVLLSELSEEEQKEIKEAEEKLVRTILKYVEEAAK
In the case of B10, the “apparent Kd (screen)” value is reported as 2.73 nM.

B11: S59Y (designed binder)
chain: SMEEEVEKAAKEYEKKKKEAIEKHLEKLKAKDKEAAERFLKELEEAAKEYAKDEAKTMYEEEAKRRAKKYKEKVLLSELSEEEQKEIKEAEEKLVRTILKYVEEAAK
With B11 the “apparent Kd (screen)” value was 7.78 nM.

B12: K15P (designed binder)
chain: SMEEEVEKAAKEYEPKKKEAIEKHLEKLKAKDKEAAERFLKELEEAAKEYAKDEAKTMSEEEAKRRAKKYKEKVLLSELSEEEQKEIKEAEEKLVRTILKYVEEAAK
B12 was tested, and the “apparent Kd (screen)” value was 6.43 nM.

B13: K31M (designed binder)
chain: SMEEEVEKAAKEYEKKKKEAIEKHLEKLKAMDKEAAERFLKELEEAAKEYAKDEAKTMSEEEAKRRAKKYKEKVLLSELSEEEQKEIKEAEEKLVRTILKYVEEAAK
B13 was tested, and the “apparent Kd (screen)” value was 0.49 nM.

B14: E4L (designed binder)
chain: SMELEVEKAAKEYEKKKKEAIEKHLEKLKAKDKEAAERFLKELEEAAKEYAKDEAKTMSEEEAKRRAKKYKEKVLLSELSEEEQKEIKEAEEKLVRTILKYVEEAAK
In the case of B14, the “apparent Kd (screen)” value is reported as 0.79 nM.

B15: K23P (designed binder)
chain: SMEEEVEKAAKEYEKKKKEAIEPHLEKLKAKDKEAAERFLKELEEAAKEYAKDEAKTMSEEEAKRRAKKYKEKVLLSELSEEEQKEIKEAEEKLVRTILKYVEEAAK
B15 was tested, and the “apparent Kd (screen)” value was 11.4 nM.

B16: F39T (designed binder)
chain: SMEEEVEKAAKEYEKKKKEAIEKHLEKLKAKDKEAAERTLKELEEAAKEYAKDEAKTMSEEEAKRRAKKYKEKVLLSELSEEEQKEIKEAEEKLVRTILKYVEEAAK
B16 was tested, and the “apparent Kd (screen)” value was 2.73 nM.

B17: K48P (designed binder)
chain: SMEEEVEKAAKEYEKKKKEAIEKHLEKLKAKDKEAAERFLKELEEAAPEYAKDEAKTMSEEEAKRRAKKYKEKVLLSELSEEEQKEIKEAEEKLVRTILKYVEEAAK
With B17 the “apparent Kd (screen)” value was 12.5 nM.

B18: A63P (designed binder)
chain: SMEEEVEKAAKEYEKKKKEAIEKHLEKLKAKDKEAAERFLKELEEAAKEYAKDEAKTMSEEEPKRRAKKYKEKVLLSELSEEEQKEIKEAEEKLVRTILKYVEEAAK
B18 was tested, and the “apparent Kd (screen)” value was 6.43 nM.

B19: A47V (designed binder)
chain: SMEEEVEKAAKEYEKKKKEAIEKHLEKLKAKDKEAAERFLKELEEAVKEYAKDEAKTMSEEEAKRRAKKYKEKVLLSELSEEEQKEIKEAEEKLVRTILKYVEEAAK
B19 was tested, and the “apparent Kd (screen)” value was 0.49 nM.

B20: K16I (designed binder)
chain: SMEEEVEKAAKEYEKIKKEAIEKHLEKLKAKDKEAAERFLKELEEAAKEYAKDEAKTMSEEEAKRRAKKYKEKVLLSELSEEEQKEIKEAEEKLVRTILKYVEEAAK
For B20, the “apparent Kd (screen)” value was 0.446 nM.

B21: I98V (designed binder)
chain: SMEEEVEKAAKEYEKKKKEAIEKHLEKLKAKDKEAAERFLKELEEAAKEYAKDEAKTMSEEEAKRRAKKYKEKVLLSELSEEEQKEIKEAEEKLVRTVLKYVEEAAK
For B21, the “apparent Kd (screen)” value was 11.4 nM.

B22: K73A (designed binder)
chain: SMEEEVEKAAKEYEKKKKEAIEKHLEKLKAKDKEAAERFLKELEEAAKEYAKDEAKTMSEEEAKRRAKKYKEAVLLSELSEEEQKEIKEAEEKLVRTILKYVEEAAK
With B22 the “apparent Kd (screen)” value was 12.5 nM.

B23: L75T (designed binder)
chain: SMEEEVEKAAKEYEKKKKEAIEKHLEKLKAKDKEAAERFLKELEEAAKEYAKDEAKTMSEEEAKRRAKKYKEKVTLSELSEEEQKEIKEAEEKLVRTILKYVEEAAK
B23 was tested, and the “apparent Kd (screen)” value was 0.446 nM.

B24: E26S (designed binder)
chain: SMEEEVEKAAKEYEKKKKEAIEKHLSKLKAKDKEAAERFLKELEEAAKEYAKDEAKTMSEEEAKRRAKKYKEKVLLSELSEEEQKEIKEAEEKLVRTILKYVEEAAK
In the case of B24, the “apparent Kd (screen)” value is reported as 0.539 nM.

B25: E44I (designed binder)
chain: SMEEEVEKAAKEYEKKKKEAIEKHLEKLKAKDKEAAERFLKELIEAAKEYAKDEAKTMSEEEAKRRAKKYKEKVLLSELSEEEQKEIKEAEEKLVRTILKYVEEAAK
With B25 the “apparent Kd (screen)” value was 0.956 nM.

B26: A105T (designed binder)
chain: SMEEEVEKAAKEYEKKKKEAIEKHLEKLKAKDKEAAERFLKELEEAAKEYAKDEAKTMSEEEAKRRAKKYKEKVLLSELSEEEQKEIKEAEEKLVRTILKYVEETAK
For B26, the “apparent Kd (screen)” value was 0.869 nM.

B27: Y70H (designed binder)
chain: SMEEEVEKAAKEYEKKKKEAIEKHLEKLKAKDKEAAERFLKELEEAAKEYAKDEAKTMSEEEAKRRAKKHKEKVLLSELSEEEQKEIKEAEEKLVRTILKYVEEAAK
B27 was tested, and the “apparent Kd (screen)” value was 5.31 nM.

B28: K41F (designed binder)
chain: SMEEEVEKAAKEYEKKKKEAIEKHLEKLKAKDKEAAERFLFELEEAAKEYAKDEAKTMSEEEAKRRAKKYKEKVLLSELSEEEQKEIKEAEEKLVRTILKYVEEAAK
B28 was tested, and the “apparent Kd (screen)” value was 0.718 nM.

B29: L43M (designed binder)
chain: SMEEEVEKAAKEYEKKKKEAIEKHLEKLKAKDKEAAERFLKEMEEAAKEYAKDEAKTMSEEEAKRRAKKYKEKVLLSELSEEEQKEIKEAEEKLVRTILKYVEEAAK
B29 was tested, and the “apparent Kd (screen)” value was 1.86 nM.

B30: E72P (designed binder)
chain: SMEEEVEKAAKEYEKKKKEAIEKHLEKLKAKDKEAAERFLKELEEAAKEYAKDEAKTMSEEEAKRRAKKYKPKVLLSELSEEEQKEIKEAEEKLVRTILKYVEEAAK
In the case of B30, the “apparent Kd (screen)” value is reported as 1.05 nM.

B31: S80P (designed binder)
chain: SMEEEVEKAAKEYEKKKKEAIEKHLEKLKAKDKEAAERFLKELEEAAKEYAKDEAKTMSEEEAKRRAKKYKEKVLLSELPEEEQKEIKEAEEKLVRTILKYVEEAAK
B31 was tested, and the “apparent Kd (screen)” value was 0.446 nM.

B32: E91S (designed binder)
chain: SMEEEVEKAAKEYEKKKKEAIEKHLEKLKAKDKEAAERFLKELEEAAKEYAKDEAKTMSEEEAKRRAKKYKEKVLLSELSEEEQKEIKEASEKLVRTILKYVEEAAK
B32 was tested, and the “apparent Kd (screen)” value was 10.4 nM.

B33: K56M (designed binder)
chain: SMEEEVEKAAKEYEKKKKEAIEKHLEKLKAKDKEAAERFLKELEEAAKEYAKDEAMTMSEEEAKRRAKKYKEKVLLSELSEEEQKEIKEAEEKLVRTILKYVEEAAK
In the case of B33, the “apparent Kd (screen)” value is reported as 0.718 nM.

B34: V95E (designed binder)
chain: SMEEEVEKAAKEYEKKKKEAIEKHLEKLKAKDKEAAERFLKELEEAAKEYAKDEAKTMSEEEAKRRAKKYKEKVLLSELSEEEQKEIKEAEEKLERTILKYVEEAAK
With B34 the “apparent Kd (screen)” value was 11.4 nM.

B35: K71E (designed binder)
chain: SMEEEVEKAAKEYEKKKKEAIEKHLEKLKAKDKEAAERFLKELEEAAKEYAKDEAKTMSEEEAKRRAKKYEEKVLLSELSEEEQKEIKEAEEKLVRTILKYVEEAAK
B35 was tested, and the “apparent Kd (screen)” value was 2.73 nM.
